From article PMC9675693, “Production and characterisation of modularly deuterated UBE2D1–Ub conjugate by small angle neutron and X-ray scattering” (European Biophysics Journal, 2022) come the findings set out here.

This series concerns the molecule itself. Nature of the series: SDS-PAGE; purified hE2 on an SDS-PAGE gel; additional band of ~25 kDa.

B1: human Ubiquitin-conjugating enzyme UBE2D1 with point mutations S22R, C85K and D87S, hydrogenated (enzyme)
chain: not shown
notes: Ubiquitin-conjugating enzyme UBE2D1, human, with S22R, C85K and D87S; In the SAS experiment (a1) K85 of this chain is joined by an isopeptide bond to G76 of dUb; also called hE2; not shown: His6, N-terminal, cleaved
Turning to B1, the binding result is recorded as “binds”.
